Experimental data from publication PMC12676778, “Long-tailed class I myosins rely on tail-mediated phosphoinositide recognition for specific membrane recruitment” (Cell Communication and Signaling : CCS, 2025).
Blank lines part the entries; values can stand above or below the binder they belong to.

Tests used:
Settings in all cases: both partners purified
microtubules = microtubules (UniProt P02550 1-451, alpha/beta-tubulin heterodimer polymerised into paclitaxel-stabilised microtubules, GTP in the buffer. Source and isotypes not given); porcine brain tubulin (a natural isotype mixture with native mod); experiment: co-sedimentation; YFP fluorescence of pellet and supernatant; 100 mM PIPES pH 6.8, 2 mM MgCl2, 1 mM EGTA, 20 µM paclitaxel, 1 mM GTP; 20,000 g, 30 min, 30 °C; hyperbolic fit
F-actin [1] = target: T1, F-actin (UniProt P68135 1-377); experiment: co-sedimentation; YFP fluorescence of pellet and supernatant; increasing F-actin concentrations; 5 mM Tris pH 7.4, 100 mM KCl, 0.04% NaN3, 2 mM MgCl2; 20,000 g, 30 min, 4 °C
F-actin [2] = target: T1, F-actin; experiment: as above; remark: listed apart in the source

Chain of microtubules (P02550 whole entry, chain 1 of 2): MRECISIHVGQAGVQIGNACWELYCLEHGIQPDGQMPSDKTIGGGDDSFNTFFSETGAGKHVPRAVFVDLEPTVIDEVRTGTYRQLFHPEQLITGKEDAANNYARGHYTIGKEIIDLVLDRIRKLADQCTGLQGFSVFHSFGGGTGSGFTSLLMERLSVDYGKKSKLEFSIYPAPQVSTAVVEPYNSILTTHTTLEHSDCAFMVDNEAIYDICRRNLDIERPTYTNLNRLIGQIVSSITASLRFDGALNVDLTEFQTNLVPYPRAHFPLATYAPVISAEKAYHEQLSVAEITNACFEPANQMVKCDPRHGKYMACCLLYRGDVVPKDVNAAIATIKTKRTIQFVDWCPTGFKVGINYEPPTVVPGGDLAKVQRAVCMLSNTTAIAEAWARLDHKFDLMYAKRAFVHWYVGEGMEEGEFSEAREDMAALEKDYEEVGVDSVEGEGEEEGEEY
Chain of microtubules (P02554 whole entry, chain 2 of 2, further chain): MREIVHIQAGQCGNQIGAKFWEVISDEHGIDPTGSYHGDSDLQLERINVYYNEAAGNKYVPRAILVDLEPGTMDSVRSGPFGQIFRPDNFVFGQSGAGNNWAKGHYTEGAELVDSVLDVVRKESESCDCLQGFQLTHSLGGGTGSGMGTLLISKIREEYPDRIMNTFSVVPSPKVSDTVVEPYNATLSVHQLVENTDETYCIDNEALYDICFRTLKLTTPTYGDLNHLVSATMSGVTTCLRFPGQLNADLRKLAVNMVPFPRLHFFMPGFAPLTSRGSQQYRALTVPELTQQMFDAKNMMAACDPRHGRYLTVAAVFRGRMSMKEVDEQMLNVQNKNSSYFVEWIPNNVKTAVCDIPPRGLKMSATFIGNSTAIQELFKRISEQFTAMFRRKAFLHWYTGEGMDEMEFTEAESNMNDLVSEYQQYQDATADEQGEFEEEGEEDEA

- Kd (microtubules): 900 ± 100 nM
- Kd (F-actin [1]): 6800 ± 200 nM
B1: myosin-1B tail (amino acids 717–1111) (domain or fragment, Dictyostelium discoideum, UniProt P34092 717-1111, looked up)
chain: QRAQIAHMFKDKKERQRNSIDRKFTSDYIDFENQFGLQEAMQNAHKKERVVFADTVIKIDRRAKQKNYEMVLTDQALYFVEKSIKKKVLVHTLIRRVGLREIKGVSISTLSDNVIVFHLPEHDQVIENDKKTEIIIVLVEYFKAIGGGSLNVQFSDRINYTLKKGEQKEISFQKSEQCPTLVVKKGGKGLIGTIASGLPSSTDSTPKNYNPNSMSQASSRPAPQQSAGRGRGMPQGAGQPQPQQPQQQQRPMPQPQQGGGARPMPQPQQGGGARPMGAPQQGGAPQQGAGRQLPQPTQQGGAPGGRGAPMGRGAPGGGPAGAGGRPLPTVAKPAPQPSRPTAKALYDYDASSTDELSFKEGDIIFIVQKDNGGWTQGELKSGQKGWAPTNYLQYN
notes: Dictyostelium discoideum myosin-1B, tail, amino acids 717-1111 (NCBI XM_631290.1); Cloned both into pGEX-6P2 (GST only) and pGEX-6P2-eYFP-mcs (GST and YFP); the actin and microtubule assays detect YFP; S3; also called YFP-myosin-1 tail; source: E. coli Rosetta pLys-S, purified (glutathione-Sepharose, size exclusion chromatography); not shown: YFP, C-terminal, kept

- Kd (F-actin [2]): 900 ± 400 nM
- Kd (F-actin [1]): 800 ± 80 nM
B2: myosin-1C tail (domain or fragment)
chain: RYWHDMASRIKNAYRNYKAFQFECSNRIKNAFRNYKLYRQRCAQTIQGYFRAWKQASPFFDLRMQNEQLFQGRKERNRFSMISVRKYFGDYLDVRSQSYFLDAMAEGRNEDVIFSSKSQVMVHPILSANKLSPRFLIVTKQAIYLIKLKQKKNLATYLLDRRVPLAEVTSFSLSSLADNLLVIHTSTQFDVAVTTEFKTELVALINKQKGTTLAVNFGQSIQYFKKKGSNNTVTFLKDEMHKEIFLKKNQFHIASGLPASTTVAKVRKNPSQVSTPSKPIAKPVAKPMVAKPSGGSVIMKKPAPAAPPSGPPVMKKPAPTAPGGAPMMKKPAPAPGGAPMMKKPAPVPGGPAPGGSAIMKPAGGVSKPLPSPTGAPMMKKPAPTAPGGPAPAGAPTPMMKKPAGQPMMKPIAKPQPTPMKKPAAPPPQQYIALYEYDAMQPDELTFKENDVINLIKKVDADWWQGELVRTKQIGMLPSNYVQQI
notes: Dictyostelium discoideum myosin-1C, tail; S3; also called YFP-myosin-1 tail; source: E. coli Rosetta pLys-S, purified (glutathione-Sepharose, size exclusion chromatography)

- Kd (microtubules): 3300 ± 200 nM
B3: myosin-1D tail-TH1 construct (aa 721–913) (domain or fragment, Dictyostelium discoideum, UniProt P34109 721-913, looked up)
chain: MKSNKERRRLSIERPYQGDYINYRENFELKDIVKKNGNEKIMFTHAVNKYDRRSRCQRRVLLLSDTAIYFIATEKNKDKEDRKKRPWIYVQKRRLLLAGITSVELSKLSDGFVVLKTMNEHDQIFECRRKTEFLGTLIKAYKTGTLRINYNNSIGVAIKASKQGGKGKERIILFEKGIKPGESVFKGTKVSTP
notes: Dictyostelium discoideum myosin-1D, TH1 domain only, aa 721-913; The methods describe cloning into pGEX-6P2 (GST only); the results call the construct YFP-tagged and the co-sedimentation detects YFP; S3; also called Myosin-1D-TH1; isolated TH1 domain; source: E. coli Rosetta pLys-S, purified (glutathione-Sepharose, size exclusion chromatography)
